Measurements from publication PMC8041770 (2021).

B1: yeast-displayed wild-type human LIFR CBM I–Ig-like domains (Gln45 to Gln337) [human] / recombinant human LIF, histidine-tagged (hLIF-His) [human] (parent complex)
chain 1: QKKGAPHDLKCVTNNLQVWNCSWKAPSGTGRGTDYEVCIENRSRSCYQLEKTSIKIPALSHGDYEITINSLHDFGSSTSKFTLNEQNVSLIPDTPEILNLSADFSTSTLYLKWNDRGSVFPHRSNVIWEIKVLRKESMELVKLVTHNTTLNGKDTLHHWSWASDMPLECAIHFVEIRCYIDNLHFSGLEEWSDWSPVKNISWIPDSQTKVFPQDKVILVGSDITFCCVSQEKVLSALIGHTNCPLIHLDGENVAIKIRNISVSASSGTNVVFTTEDNIFGTVIFAGYPPDTPQ
chain 2: not shown

Variants of: B1
Assay: flow cytometry of yeast-displayed LIFR variants; parent: 1; read off a plot

| ratio to parent | Variant |
| --- | --- |
| ~6 | chain 1 I217V, chain 1 L218P, chain 1 N242D, chain 1 V262A, chain 1 T273I, chain 1 N277D |
| ~13 | chain 1 I217V, chain 1 L218P, chain 1 H240R, chain 1 N242D, chain 1 I257V, chain 1 I260V, chain 1 V262A, chain 1 T273I, chain 1 N277D |
| ~12 | chain 1 I217V, chain 1 L218P, chain 1 N242D, chain 1 I257V, chain 1 I260V, chain 1 V262A, chain 1 T273I, chain 1 N277D |
| ~13 | chain 1 L218P, chain 1 H240R, chain 1 N242D, chain 1 I257V, chain 1 I260V, chain 1 V262A, chain 1 T273I, chain 1 N277D |
| ~12 | chain 1 L218P, chain 1 H240R, chain 1 I257V, chain 1 V262A, chain 1 T273I, chain 1 N277D |
| ~6 | chain 1 L218P, chain 1 N242D, chain 1 I257V, chain 1 N277D |
| ~15 | chain 1 L218P, chain 1 H240R, chain 1 I257V, chain 1 I260V, chain 1 V262A, chain 1 T273I, chain 1 N277D |
